# Starred links: 1 amine or outer side, 2 acyl side, 3 side chain; linkers in the order of their positions; H or OH if unused. Positions of bridges follow the written chain, without caps; N, C: chain ends. Non-standard residues stand in square brackets, D forms with d. Primed or numbered codes have the meaning given here. PyrS2″ = (S)-3-amino-1-((pent-4-en-1-yloxy)carbonyl)pyrrolidine-3-carboxylic acid (stapling residue), C=CCCCOC(=O)N1CC[C@@](N[*:1])(C(=O)[*:2])C1; B5(4) = 2,2-bis(4-pentenyl)glycine = 2-amino-2-(pent-4-en-1-yl)hept-6-enoic acid (stitching residue), C=CCCCC(CCCC=C)(N[*:1])C(=O)[*:2]; B5(5) = 2,2-bis(4-pentenyl)glycine, 2-amino-2-(pent-4-en-1-yl)hept-6-enoic acid (stitching residue), C=CCCCC(CCCC=C)(N[*:1])C(=O)[*:2]; PyrS2 = (S)-3-amino-1-((pent-4-en-1-yloxy)carbonyl)pyrrolidine-3-carboxylic acid, C=CCCCOC(=O)N1CC[C@@](N[*:1])(C(=O)[*:2])C1; B5(27) = 2-amino-2-(pent-4-en-1-yl)hept-6-enoic acid (two alkene side-chain arms), C=CCCCC(CCCC=C)(N[*:1])C(=O)[*:2]; F2PipAbu = (S)-2-amino-4-(4,4-difluoropiperidin-1-yl)butanoic acid, O=C([C@H](CCN1CCC(F)(F)CC1)N[*:1])[*:2]; MorphAsn = (S)-2-amino-4-morpholino-4-oxobutanoic acid, O=C(C[C@H](N[*:1])C(=O)[*:2])N1CCOCC1; Phe(3-COOH) = N[C@@H](Cc1cccc(C(=O)O)c1)C(=O)O; Bta = N[C@@H](Cc1csc2ccccc12)C(=O)O; hTyr = N[C@@H](CCc1ccc(O)cc1)C(=O)O; αAllylPro = C=CC[C@@]1(C(=O)O)CCCN1; tBuAla = CC(C)(C)C[C@H](N)C(=O)O; 3Thi = N[C@@H](Cc1ccsc1)C(=O)O; Cha = N[C@@H](CC1CCCCC1)C(=O)O; S8 = C=CCCCCCC[C@](C)(N)C(=O)O; PyrS2(4) = not defined here; hSer = N[C@@H](CCO)C(=O)O; Nle = CCCC[C@H](N)C(=O)O
# T1: B-cat-Halo (beta-catenin HaloTag NanoBRET construct expressed in HEK293 cells) (UniProt P35222 1-781, HaloTag NanoBRET 618 Ligand bound to the HaloTag)
# T1 sequence (looked up): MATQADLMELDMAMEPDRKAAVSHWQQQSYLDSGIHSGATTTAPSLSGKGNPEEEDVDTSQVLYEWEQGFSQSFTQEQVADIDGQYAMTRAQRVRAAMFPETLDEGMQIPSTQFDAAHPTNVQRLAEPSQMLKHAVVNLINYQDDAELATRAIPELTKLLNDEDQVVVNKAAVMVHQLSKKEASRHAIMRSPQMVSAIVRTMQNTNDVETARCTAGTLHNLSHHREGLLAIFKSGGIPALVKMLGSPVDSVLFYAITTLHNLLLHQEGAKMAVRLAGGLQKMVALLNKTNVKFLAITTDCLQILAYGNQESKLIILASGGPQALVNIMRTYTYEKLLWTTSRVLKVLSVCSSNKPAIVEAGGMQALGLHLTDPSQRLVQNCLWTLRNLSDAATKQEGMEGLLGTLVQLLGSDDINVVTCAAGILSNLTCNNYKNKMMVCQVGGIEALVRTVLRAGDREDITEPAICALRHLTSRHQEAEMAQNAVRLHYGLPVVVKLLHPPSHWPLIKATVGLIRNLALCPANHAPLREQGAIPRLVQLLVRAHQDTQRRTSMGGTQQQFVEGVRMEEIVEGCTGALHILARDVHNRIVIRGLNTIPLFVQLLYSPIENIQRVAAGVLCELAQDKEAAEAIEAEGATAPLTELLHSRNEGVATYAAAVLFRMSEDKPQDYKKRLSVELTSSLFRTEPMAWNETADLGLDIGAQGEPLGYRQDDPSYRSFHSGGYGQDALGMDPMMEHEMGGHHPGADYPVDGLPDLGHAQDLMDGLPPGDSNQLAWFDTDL
# T2: Bcat-Halo (UniProt P35222 1-781)
# T2 sequence (looked up): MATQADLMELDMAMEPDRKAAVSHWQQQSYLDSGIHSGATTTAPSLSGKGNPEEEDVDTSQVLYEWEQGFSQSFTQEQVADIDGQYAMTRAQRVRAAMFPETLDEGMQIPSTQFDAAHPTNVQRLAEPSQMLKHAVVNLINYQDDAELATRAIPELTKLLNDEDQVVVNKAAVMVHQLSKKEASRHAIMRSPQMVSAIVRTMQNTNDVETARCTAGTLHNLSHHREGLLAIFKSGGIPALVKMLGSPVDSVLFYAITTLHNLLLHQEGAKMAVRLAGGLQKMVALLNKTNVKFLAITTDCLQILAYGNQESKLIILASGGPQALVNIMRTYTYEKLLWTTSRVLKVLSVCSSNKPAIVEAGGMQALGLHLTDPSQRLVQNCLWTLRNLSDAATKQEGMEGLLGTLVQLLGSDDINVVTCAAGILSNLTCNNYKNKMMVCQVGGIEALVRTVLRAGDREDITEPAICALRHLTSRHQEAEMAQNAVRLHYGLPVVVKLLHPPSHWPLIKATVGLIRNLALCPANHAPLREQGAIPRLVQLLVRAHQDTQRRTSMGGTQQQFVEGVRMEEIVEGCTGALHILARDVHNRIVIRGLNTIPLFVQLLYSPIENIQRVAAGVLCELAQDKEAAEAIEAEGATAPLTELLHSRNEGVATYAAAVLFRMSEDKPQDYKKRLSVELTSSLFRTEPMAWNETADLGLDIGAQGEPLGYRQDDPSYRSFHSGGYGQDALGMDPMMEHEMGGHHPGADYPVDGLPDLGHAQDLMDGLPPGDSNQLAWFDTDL
# Biological target: T1, B-cat-Halo (beta-catenin HaloTag …)
# Experiment: cell-based or functional assay
row,NanoBRET Abs IC50 [µM],Binder
1,> 20,"Ac-[αAllylPro]D[tBuAla][B5(27)]DDA[MorphAsn]FL[PyrS2][3Thi][Bta]Q-NH2 (staple 1-4, 4-11) [I-1507: Ac-PL3-Asp-Npg-B5-Asp-Asp-Ala-MorphAsn-Phe-Leu-PyrS2-3Thi-BztA-Gln-NH2]"
2,24.2,"Ac-[αAllylPro]DN[B5(5)]DDAAFL[PyrS2″][3Thi][Bta][hSer]-NH2 (staple 1-4, 4-11) [I-1518: Ac-PL3-Asp-Asn-B5-Asp-Asp-Ala-Ala-Phe-Leu-PyrS2-3Thi-BztA-Hse-NH2]"
3,12.8,"Ac-[αAllylPro]D[Cha][B5(5)]DDAAFL[PyrS2″][3Thi][Bta]Q-NH2 (staple 1-4, 4-11) [I-1519: Ac-PL3-Asp-Cha-B5-Asp-Asp-Ala-Ala-Phe-Leu-PyrS2-3Thi-BztA-Gln-NH2]"
4,24.5,"Ac-[αAllylPro]DF[B5(5)]DDAAFL[PyrS2(4)][3Thi][Bta]Q-NH2 (staple 1-4, 4-11; not fully specified; printed as I-1509: Ac-PL3-Asp-Phe-B5-Asp-Asp-Ala-Ala-Phe-Leu-PyrS2-3Thi-BztA-Gln-NH2; reading uncertain) [I-1509: Ac-PL3-Asp-Phe-B5-Asp-Asp-Ala-Ala-Phe-Leu-PyrS2-3Thi-BztA-Gln-NH2]"
5,5.8,"Ac-[αAllylPro]D[Nle][B5(5)]DEAAFQ[S8]F[Bta]Q-NH2 (staple 1-4, 4-11) [I-1522: Ac-PL3-Asp-nLeu-B5-Asp-Glu-Ala-Ala-Phe-Gln-S8-Phe-BztA-Gln-NH2]"
6,8,"Ac-[αAllylPro]D[Nle][B5(5)]DEAAFL[S8]F[Bta]Q-NH2 (staple 1-4, 4-11) [I-1523: Ac-PL3-Asp-nLeu-B5-Asp-Glu-Ala-Ala-Phe-Leu-S8-Phe-BztA-Gln-NH2]"
7,> 20,"Ac-[αAllylPro]DN[B5(5)]DDAAFL[PyrS2″][3Thi][Bta]Q-NH2 (staple 1-4, 4-11) [I-1517: Ac-PL3-Asp-Asn-B5-Asp-Asp-Ala-Ala-Phe-Leu-PyrS2-3Thi-BztA-Gln-NH2]"
8,> 20,"Ac-[αAllylPro]DY[B5(27)]DDAAFL[PyrS2][3Thi][Bta]Q-NH2 (staple 1-4, 4-11) [I-1511: Ac-PL3-Asp-Tyr-B5-Asp-Asp-Ala-Ala-Phe-Leu-PyrS2-3Thi-BztA-Gln-NH2]"
9,6,"Ac-[αAllylPro]D[Nle][B5(5)]DEAAFQ[S8]F[Bta]Q-NH2 (staple 1-4, 4-11; also: staple isomer, earlier eluting HPLC peak) [I-1521: Ac-PL3-Asp-nLeu-B5-Asp-Glu-Ala-Ala-Phe-Gln-S8-Phe-BztA-Gln-NH2]"
10,> 20,"Ac-[αAllylPro]DT[B5(5)]DDAAFL[PyrS2″][3Thi][Bta][hSer]-NH2 (staple 1-4, 4-11) [I-1516: Ac-PL3-Asp-Thr-B5-Asp-Asp-Ala-Ala-Phe-Leu-PyrS2-3Thi-BztA-Hse-NH2]"
11,> 20,"Ac-[αAllylPro]DS[B5(5)]DDAAFL[PyrS2″][3Thi][Bta]Q-NH2 (staple 1-4, 4-11) [I-1513: Ac-PL3-Asp-Ser-B5-Asp-Asp-Ala-Ala-Phe-Leu-PyrS2-3Thi-BztA-Gln-NH2]"
12,> 20,"Ac-[αAllylPro]DY[B5(5)]DDAAFL[PyrS2″][3Thi][Bta][hSer]-NH2 (staple 1-4, 4-11) [I-1512: Ac-PL3-Asp-Tyr-B5-Asp-Asp-Ala-Ala-Phe-Leu-PyrS2-3Thi-BztA-Hse-NH2]"
13,8.1,"Ac-[αAllylPro]D[Nle][B5(5)]DEAAF[hSer][S8]F[Bta]Q-NH2 (staple 1-4, 4-11; also: staple isomer, earlier eluting HPLC peak) [I-1524: Ac-PL3-Asp-nLeu-B5-Asp-Glu-Ala-Ala-Phe-Hse-S8-Phe-BztA-Gln-NH2]"
14,17.4,"Ac-[αAllylPro]D[Cha][B5(5)]DDAAFL[PyrS2(4)][3Thi][Bta][hSer]-NH2 (staple 1-4, 4-11; not fully specified; printed as I-1520: Ac-PL3-Asp-Cha-B5-Asp-Asp-Ala-Ala-Phe-Leu-PyrS2-3Thi-BztA-Hse-NH2; reading uncertain) [I-1520: Ac-PL3-Asp-Cha-B5-Asp-Asp-Ala-Ala-Phe-Leu-PyrS2-3Thi-BztA-Hse-NH2]"
15,> 20,"Ac-[αAllylPro]D[tBuAla][B5(27)]DDA[F2PipAbu]FL[PyrS2][3Thi][Bta]Q-NH2 (staple 1-4, 4-11) [I-1505: Ac-PL3-Asp-Npg-B5-Asp-Asp-Ala-F2PipAbu-Phe-Leu-PyrS2-3Thi-BztA-Gln-NH2]"
16,31.8,"Ac-[αAllylPro]DF[B5(27)]DDAAFL[PyrS2][3Thi][Bta][hSer]-NH2 (staple 1-4, 4-11) [I-1510: Ac-PL3-Asp-Phe-B5-Asp-Asp-Ala-Ala-Phe-Leu-PyrS2-3Thi-BztA-Hse-NH2]"
17,> 20,"Ac-[αAllylPro]DT[B5(5)]DDAAFL[PyrS2″][3Thi][Bta]Q-NH2 (staple 1-4, 4-11) [I-1515: Ac-PL3-Asp-Thr-B5-Asp-Asp-Ala-Ala-Phe-Leu-PyrS2-3Thi-BztA-Gln-NH2]"

# Biological target: T2, Bcat-Halo
# Experiment: cell-based or functional assay
row,NanoBRET Abs IC50 [µM],Binder
1,40.8,"Ac-[αAllylPro]D[tBuAla][B5(4)]DWAA[Phe(3-COOH)]N[PyrS2″][3Thi][Bta]Q-NH2 (staple 1-4, 4-11) [I-2127]"
2,44,"Ac-[αAllylPro]D[tBuAla][B5(4)]DWAA[Phe(3-COOH)]L[PyrS2″][3Thi][Bta]Q-NH2 (staple 1-4, 4-11) [I-2129]"
3,38.9,"Ac-[αAllylPro]D[tBuAla][B5(4)]DYAA[Phe(3-COOH)][hSer][PyrS2″][3Thi][Bta]Q-NH2 (staple 1-4, 4-11; also: earlier eluting HPLC isomer composition) [I-2124]"
4,37.2,"Ac-[αAllylPro]D[tBuAla][B5(4)]DHAA[Phe(3-COOH)][hSer][PyrS2(4)][3Thi][Bta]Q-NH2 (staple 1-4, 4-11; reading uncertain; also: earlier eluting HPLC isomer composition, printed as Ac-PL3-Asp-Npg-B5-Asp-His-Ala-Ala-3COOHF-Hse-PyrS2-3Thi-BztA-Gln-NH2) [I-2120]"
5,41.2,"Ac-[αAllylPro]D[tBuAla][B5(4)]DYAA[Phe(3-COOH)][hSer][PyrS2″][3Thi][Bta]Q-NH2 (staple 1-4, 4-11; also: later eluting HPLC isomer composition) [I-2125]"
6,26.9,"Ac-[αAllylPro]D[tBuAla][B5(4)]DHAA[Phe(3-COOH)]L[PyrS2″][3Thi][Bta]Q-NH2 (staple 1-4, 4-11; also: later eluting HPLC isomer composition) [I-2123]"
7,27,"Ac-[αAllylPro]D[tBuAla][B5(4)]DWAA[Phe(3-COOH)][hSer][PyrS2″][3Thi][Bta]Q-NH2 (staple 1-4, 4-11) [I-2128]"
8,> 20,"Ac-[αAllylPro]D[tBuAla][B5(4)]DHAA[Phe(3-COOH)][hSer][PyrS2″][3Thi][Bta]Q-NH2 (staple 1-4, 4-11; also: later eluting HPLC isomer composition) [I-2121]"
9,34.4,"Ac-[αAllylPro]D[tBuAla][B5(4)]DHAA[Phe(3-COOH)]L[PyrS2″][3Thi][Bta]Q-NH2 (staple 1-4, 4-11; also: earlier eluting HPLC isomer composition) [I-2122]"
10,29.5,"Ac-[αAllylPro]D[tBuAla][B5(4)]DYAA[Phe(3-COOH)]L[PyrS2″][3Thi][Bta]Q-NH2 (staple 1-4, 4-11) [I-2126]"

# More lines, now with the values behind:
row,Binder,NanoBRET Abs IC50 [µM]
1,"Ac-[αAllylPro]D[tBuAla][B5(4)]DHAA[Phe(3-COOH)]N[PyrS2″][3Thi][Bta]Q-NH2 (staple 1-4, 4-11; also: earlier eluting HPLC isomer composition) [I-2118]",> 20
2,"Ac-[αAllylPro]D[tBuAla][B5(4)]DHAA[Phe(3-COOH)]N[PyrS2″][3Thi][Bta]Q-NH2 (staple 1-4, 4-11; also: later eluting HPLC isomer composition) [I-2119]",> 20
3,"Ac-[αAllylPro]D[tBuAla][B5(4)]D[hTyr]AA[Phe(3-COOH)][hSer][PyrS2″][3Thi][Bta]Q-NH2 (staple 1-4, 4-11; also: later eluting HPLC isomer composition) [I-2117]",> 20
4,"Ac-[αAllylPro]D[tBuAla][B5(4)]D[hTyr]AA[Phe(3-COOH)][hSer][PyrS2″][3Thi][Bta]Q-NH2 (staple 1-4, 4-11; also: earlier eluting HPLC isomer composition) [I-2116]",33.4

# Reference: patent publication US20240116985A1 (published 2024)
